From article PMC10506259, “A glycosylated Phr1 protein is induced by calcium stress and its expression is positively controlled by the calcium/calcineurin signaling transcription factor Crz1 in Candida albicans” come the findings set out here.

Data set [1] concerns the target T1, 6xHis-Crz1 (CaCrz1) (Candida albicans, UniProt Q5A4H5 1-731).
T1 sequence: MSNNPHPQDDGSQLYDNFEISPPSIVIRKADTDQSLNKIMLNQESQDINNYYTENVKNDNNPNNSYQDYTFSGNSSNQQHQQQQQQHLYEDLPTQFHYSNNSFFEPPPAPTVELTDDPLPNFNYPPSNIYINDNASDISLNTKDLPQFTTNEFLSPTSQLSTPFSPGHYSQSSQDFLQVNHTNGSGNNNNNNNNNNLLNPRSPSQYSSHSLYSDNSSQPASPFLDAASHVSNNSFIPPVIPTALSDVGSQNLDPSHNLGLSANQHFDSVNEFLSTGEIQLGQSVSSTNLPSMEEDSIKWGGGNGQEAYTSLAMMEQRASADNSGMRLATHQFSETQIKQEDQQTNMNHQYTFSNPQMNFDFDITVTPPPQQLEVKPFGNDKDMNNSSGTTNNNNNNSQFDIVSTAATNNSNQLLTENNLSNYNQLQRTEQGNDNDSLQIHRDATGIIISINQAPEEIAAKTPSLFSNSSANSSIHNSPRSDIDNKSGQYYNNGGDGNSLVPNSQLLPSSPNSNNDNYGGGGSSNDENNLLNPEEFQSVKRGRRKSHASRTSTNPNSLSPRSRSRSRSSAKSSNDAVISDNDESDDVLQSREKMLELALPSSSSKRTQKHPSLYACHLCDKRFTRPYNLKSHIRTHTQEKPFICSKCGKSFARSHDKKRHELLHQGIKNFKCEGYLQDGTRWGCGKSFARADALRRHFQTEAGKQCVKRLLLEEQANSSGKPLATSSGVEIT
Briefly: EMSA; 1 ug protein; DIG Gel Shift Kit (Roche), per manufacturer; buffer, salt, pH and temperature not stated. Particulars: protein: recombinant; tags: His6; label: DIG at 3' end; blunt. (Mobility shift assays separate free from complexed probe on a gel.)

Data set [2] concerns the target T1, 6xHis-Crz1 (CaCrz1). Briefly: competition; unlabelled probe abolished binding to DIG-labelled N1; 1 ug protein; DIG Gel Shift Kit (Roche), per manufacturer; buffer, salt, pH and temperature not stated. The note with it: protein: recombinant; tags: His6; blunt.

B1: EMSA_PHR1_F/R (PHR1 promoter CDRE probe) (dsDNA)
DNA 1: CCTTTCTCATAGGAATTCATCGACGCCTCATTCATACTAATATAATAGGT
DNA 2: ACCTATTATATTAGTATGAATGAGGCGTCGATGAATTCCTATGAGAAAGG
With B1, the binding result with 6xHis-Crz1 (CaCrz1) [1] is reported as “binds”.

B2: unlabelled EMSA_PHR1_F/R (specific competitor) (dsDNA)
DNA 1: CCTTTCTCATAGGAATTCATCGACGCCTCATTCATACTAATATAATAGGT
DNA 2: ACCTATTATATTAGTATGAATGAGGCGTCGATGAATTCCTATGAGAAAGG
On to B2, for which, in the data set with 6xHis-Crz1 (CaCrz1) [2], the binding result is on record as “binds”.
